Reference: IntAct's records for PubMed 20562859

Key:
nips2_human NIPSNAP2 = molecular target: T1, nips2_human NIPSNAP2 (UniProt O75323)
T1 sequence: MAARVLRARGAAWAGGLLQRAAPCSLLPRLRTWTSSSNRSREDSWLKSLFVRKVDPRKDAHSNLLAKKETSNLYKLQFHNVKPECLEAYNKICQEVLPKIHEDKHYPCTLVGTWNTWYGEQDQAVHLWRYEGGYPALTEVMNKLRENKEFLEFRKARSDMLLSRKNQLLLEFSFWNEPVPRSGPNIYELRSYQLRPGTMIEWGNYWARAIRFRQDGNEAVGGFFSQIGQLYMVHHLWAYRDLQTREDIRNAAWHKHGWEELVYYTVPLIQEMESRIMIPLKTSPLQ

nedd4_human NEDD4 = nedd4_human NEDD4 (UniProt P46934)
kbtb7_human KBTBD7 = molecular target: T2, kbtb7_human KBTBD7 (UniProt Q8WVZ9)
T2 sequence: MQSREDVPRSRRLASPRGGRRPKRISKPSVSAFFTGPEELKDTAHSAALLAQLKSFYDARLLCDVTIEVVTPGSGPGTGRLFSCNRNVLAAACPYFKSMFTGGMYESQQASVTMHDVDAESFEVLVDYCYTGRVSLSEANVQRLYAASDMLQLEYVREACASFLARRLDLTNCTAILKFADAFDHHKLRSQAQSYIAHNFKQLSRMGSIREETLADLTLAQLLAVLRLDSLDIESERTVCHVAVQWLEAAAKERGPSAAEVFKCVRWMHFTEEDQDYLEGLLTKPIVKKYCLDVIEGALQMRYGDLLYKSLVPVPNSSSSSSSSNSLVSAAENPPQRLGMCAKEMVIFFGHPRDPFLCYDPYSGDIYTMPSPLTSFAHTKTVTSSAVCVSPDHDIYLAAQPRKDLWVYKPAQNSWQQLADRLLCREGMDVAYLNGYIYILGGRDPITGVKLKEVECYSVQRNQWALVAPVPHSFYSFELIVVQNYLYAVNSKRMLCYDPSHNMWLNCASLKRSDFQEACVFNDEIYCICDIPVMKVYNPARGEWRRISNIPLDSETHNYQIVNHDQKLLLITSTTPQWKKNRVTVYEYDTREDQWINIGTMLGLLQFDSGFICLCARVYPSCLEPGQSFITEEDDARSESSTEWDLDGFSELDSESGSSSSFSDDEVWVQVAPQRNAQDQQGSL

atg10_human ATG10 = atg10_human ATG10 (UniProt Q9H0Y0)
Chain of atg10_human ATG10 (Q9H0Y0 whole entry): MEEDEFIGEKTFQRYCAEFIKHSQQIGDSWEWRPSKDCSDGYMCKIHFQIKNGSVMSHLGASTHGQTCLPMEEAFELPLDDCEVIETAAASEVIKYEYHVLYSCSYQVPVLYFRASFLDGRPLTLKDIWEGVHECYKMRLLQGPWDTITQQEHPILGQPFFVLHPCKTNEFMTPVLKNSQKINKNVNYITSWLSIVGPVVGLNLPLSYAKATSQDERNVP

stk3_human STK3 = molecular target: T3, stk3_human STK3 (UniProt Q13188)
T3 sequence: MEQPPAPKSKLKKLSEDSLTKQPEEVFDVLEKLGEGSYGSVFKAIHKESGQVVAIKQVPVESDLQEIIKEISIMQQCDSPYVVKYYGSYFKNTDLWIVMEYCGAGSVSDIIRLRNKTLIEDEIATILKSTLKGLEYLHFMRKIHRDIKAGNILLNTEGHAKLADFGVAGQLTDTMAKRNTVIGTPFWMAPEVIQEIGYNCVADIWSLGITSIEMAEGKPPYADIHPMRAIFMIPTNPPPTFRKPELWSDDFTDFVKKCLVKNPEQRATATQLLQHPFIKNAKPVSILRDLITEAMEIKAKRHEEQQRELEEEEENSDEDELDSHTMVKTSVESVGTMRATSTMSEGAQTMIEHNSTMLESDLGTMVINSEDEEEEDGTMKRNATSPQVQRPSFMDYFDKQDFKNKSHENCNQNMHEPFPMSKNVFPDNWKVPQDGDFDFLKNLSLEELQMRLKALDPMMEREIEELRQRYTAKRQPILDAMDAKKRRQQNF

atg3_human ATG3 = atg3_human ATG3 (UniProt Q9NT62)
Chain of atg3_human ATG3 (Q9NT62 whole entry): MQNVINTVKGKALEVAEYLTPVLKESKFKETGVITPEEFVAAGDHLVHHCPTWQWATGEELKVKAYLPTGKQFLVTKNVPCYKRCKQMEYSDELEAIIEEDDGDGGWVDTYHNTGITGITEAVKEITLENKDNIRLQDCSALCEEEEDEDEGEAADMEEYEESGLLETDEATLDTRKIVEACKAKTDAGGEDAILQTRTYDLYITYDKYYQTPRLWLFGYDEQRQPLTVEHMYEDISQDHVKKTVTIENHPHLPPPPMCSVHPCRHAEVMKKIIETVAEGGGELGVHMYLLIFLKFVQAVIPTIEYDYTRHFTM

tcpr2_human TECPR2 = molecular target: T4, tcpr2_human TECPR2 (UniProt O15040)
T4 sequence: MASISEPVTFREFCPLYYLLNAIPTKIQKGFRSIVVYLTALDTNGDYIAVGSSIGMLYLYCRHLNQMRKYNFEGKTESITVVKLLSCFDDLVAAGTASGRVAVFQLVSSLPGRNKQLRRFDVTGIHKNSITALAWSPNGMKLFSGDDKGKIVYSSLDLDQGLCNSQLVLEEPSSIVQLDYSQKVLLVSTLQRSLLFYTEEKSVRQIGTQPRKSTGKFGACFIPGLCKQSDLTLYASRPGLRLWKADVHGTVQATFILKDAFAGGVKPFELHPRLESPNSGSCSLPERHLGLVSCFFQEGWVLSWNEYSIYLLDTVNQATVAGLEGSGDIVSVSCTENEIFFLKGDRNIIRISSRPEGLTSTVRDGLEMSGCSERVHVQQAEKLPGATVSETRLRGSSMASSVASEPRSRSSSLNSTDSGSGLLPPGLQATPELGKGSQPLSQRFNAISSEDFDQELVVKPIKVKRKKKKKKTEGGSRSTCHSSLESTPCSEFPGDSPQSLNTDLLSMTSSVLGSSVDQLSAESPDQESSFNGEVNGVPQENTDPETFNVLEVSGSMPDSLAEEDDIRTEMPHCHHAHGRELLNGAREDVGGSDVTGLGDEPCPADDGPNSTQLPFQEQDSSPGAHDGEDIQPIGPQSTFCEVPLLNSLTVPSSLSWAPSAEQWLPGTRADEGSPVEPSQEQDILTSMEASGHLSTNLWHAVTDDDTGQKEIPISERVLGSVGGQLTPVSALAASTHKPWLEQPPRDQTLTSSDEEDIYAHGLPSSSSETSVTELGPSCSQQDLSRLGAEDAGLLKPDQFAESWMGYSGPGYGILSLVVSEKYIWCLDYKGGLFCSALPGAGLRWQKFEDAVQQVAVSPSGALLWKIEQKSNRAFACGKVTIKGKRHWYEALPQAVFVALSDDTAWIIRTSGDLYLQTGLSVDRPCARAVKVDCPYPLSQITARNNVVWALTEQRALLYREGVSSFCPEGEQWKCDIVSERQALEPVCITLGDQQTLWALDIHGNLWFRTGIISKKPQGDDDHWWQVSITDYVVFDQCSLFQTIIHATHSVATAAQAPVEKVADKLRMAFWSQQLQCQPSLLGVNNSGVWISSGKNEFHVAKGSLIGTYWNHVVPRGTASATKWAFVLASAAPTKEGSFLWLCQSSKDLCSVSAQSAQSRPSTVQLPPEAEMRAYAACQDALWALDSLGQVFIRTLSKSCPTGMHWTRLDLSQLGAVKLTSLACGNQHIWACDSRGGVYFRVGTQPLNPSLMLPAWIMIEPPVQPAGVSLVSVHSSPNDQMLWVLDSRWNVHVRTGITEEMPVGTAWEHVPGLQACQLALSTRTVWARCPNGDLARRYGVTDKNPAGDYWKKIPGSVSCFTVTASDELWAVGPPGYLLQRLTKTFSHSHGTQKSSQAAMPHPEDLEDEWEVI

Chain of nedd4_human NEDD4 (P46934 whole entry): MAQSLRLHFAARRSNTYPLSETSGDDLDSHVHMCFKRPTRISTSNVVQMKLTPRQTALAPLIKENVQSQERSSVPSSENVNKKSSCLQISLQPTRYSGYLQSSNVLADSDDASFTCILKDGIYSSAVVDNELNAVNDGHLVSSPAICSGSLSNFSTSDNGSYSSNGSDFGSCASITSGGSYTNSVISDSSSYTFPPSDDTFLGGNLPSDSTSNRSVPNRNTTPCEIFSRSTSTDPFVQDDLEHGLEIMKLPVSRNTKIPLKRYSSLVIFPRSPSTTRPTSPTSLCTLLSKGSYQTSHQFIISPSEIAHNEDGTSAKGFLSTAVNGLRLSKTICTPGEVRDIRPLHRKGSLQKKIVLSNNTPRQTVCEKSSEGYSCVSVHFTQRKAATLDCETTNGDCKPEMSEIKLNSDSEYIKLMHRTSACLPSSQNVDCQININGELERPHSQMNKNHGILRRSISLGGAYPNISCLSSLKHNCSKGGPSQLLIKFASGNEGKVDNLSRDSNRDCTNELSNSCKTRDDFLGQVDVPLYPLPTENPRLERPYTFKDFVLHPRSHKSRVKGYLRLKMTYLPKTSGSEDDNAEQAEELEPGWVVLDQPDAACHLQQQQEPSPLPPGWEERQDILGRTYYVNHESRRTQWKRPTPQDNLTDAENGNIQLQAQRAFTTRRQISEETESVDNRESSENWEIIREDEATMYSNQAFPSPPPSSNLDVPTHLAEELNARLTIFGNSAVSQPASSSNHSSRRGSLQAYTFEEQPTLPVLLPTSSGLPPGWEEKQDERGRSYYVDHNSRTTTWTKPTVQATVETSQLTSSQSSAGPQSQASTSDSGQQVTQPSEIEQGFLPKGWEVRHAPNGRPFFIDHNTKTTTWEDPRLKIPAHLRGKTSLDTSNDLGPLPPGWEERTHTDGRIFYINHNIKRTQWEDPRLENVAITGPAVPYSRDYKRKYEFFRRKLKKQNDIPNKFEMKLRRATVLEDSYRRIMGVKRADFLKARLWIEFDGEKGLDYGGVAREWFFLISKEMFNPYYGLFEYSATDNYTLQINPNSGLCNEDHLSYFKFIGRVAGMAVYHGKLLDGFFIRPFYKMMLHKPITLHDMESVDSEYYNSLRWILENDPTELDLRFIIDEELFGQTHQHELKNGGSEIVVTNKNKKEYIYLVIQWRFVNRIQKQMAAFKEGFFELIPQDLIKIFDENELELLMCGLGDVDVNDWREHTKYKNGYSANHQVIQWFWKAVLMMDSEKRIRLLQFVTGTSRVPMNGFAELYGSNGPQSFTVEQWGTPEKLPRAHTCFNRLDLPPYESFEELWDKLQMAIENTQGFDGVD

Row | effect of a mutation on the interaction (nips2_human NIPSNAP2) | effect of a mutation on the interaction (nedd4_human NEDD4) | effect of a mutation on the interaction (kbtb7_human KBTBD7) | effect of a mutation on the interaction (atg10_human ATG10) | effect of a mutation on the interaction (stk3_human STK3) | effect of a mutation on the interaction (atg3_human ATG3) | effect of a mutation on the interaction (tcpr2_human TECPR2) | Substance
1 | increasing interaction | decreasing interaction | decreasing interaction | increasing interaction | increasing interaction | disrupting interaction | decreasing interaction | Microtubule-associated protein 1 light chain 3 beta (Homo sapiens) (from UniProt Q9GZQ8) F52A;L53A
2 | decreasing interaction | decreasing interaction | disrupting interaction | decreasing interaction | decreasing interaction | disrupting interaction | disrupting interaction | Microtubule-associated protein 1 light chain 3 beta (Homo sapiens) (from UniProt Q9GZQ8) R69A
